Assays:
Assay type in all cases: physicochemical
[1] = Stability of human ghrelin in pH-adjusted purified water at 25°C (Example 7); details: for Peak area ratio to total peak area: 25±2°C
Description: Human ghrelin was dissolved in the purified water with about 0.03 μmol/mL (0.1 mg/mL). […] This solution was divided into quarter, and one portion was kept alone and the pH values of the remaining three portions were adjusted to pH 1.8 (with 17 mM of hydrochloric acid), pH 3.9 (with 0.20 mM of hydrochloric acid) and pH 7.8 (with 0.24 mM of sodium hydroxide) respectively, by adding along with hydrochloric acid or sodium hydroxide aqueous solution.

[2] = Stability of human ghrelin in Britton-Robinson buffer solutions of various pH at 40°C (Example 3); details: pH range of 3 to 6, stored at 40° C. for 1 day (FIG. 3)
Description: Human ghrelin, which is one of the ghrelins, was dissolved in the Britton-Robinson buffer solutions which is adjusted by combining 0.04M phosphoric acid-acetic acid-boric acid aqueous solution and 0.2M sodium hydrate aqueous solution in appropriate ratio, having pH of 2.1, 3.1, 4.0, 5.0, 6.0, 7.0 and 7.9 to obtain an aqueous solution containing human ghrelin in the concentration of about 0.15 μmol/mL (0.5 mg/mL). The obtained solution was filled in brownish glass ampoules and the ampoules were sealed with fire. For the calculation of kinetic constant, the certain degrees of degradation products have to be occurred in the aqueous solution of the ghrelins, and therefore, the ampoules were stored at 40±1° C., which was severe conditions for storage. The concentration (residual ratio) of human ghrelin was conducted by HPLC with time. At the same time, the pH of the solution was measured and it was confirmed that there was no significant changes of pH in solution.
The kinetic constants in each pH solution were calculated from the sequential change of the residual ratio, and the results were shown in FIG. 2.

[3] = Stability of human ghrelin in 0.1M HCl and Mcllvain buffer solutions of various pH at 25°C (Example 2, HPLC peak area ratio)
Description: Human ghrelin was dissolved in the following aqueous solutions in the concentration of about 0.15 μmol/mL (0.5 mg/mL).
0.1M HCl aqueous solution (pH: 1.1)
The pH was adjusted with 0.1M citric aqueous acid and 0.2M dibasic sodium phosphate aqueous solution.
Each solution were stored at 25±2° C. for 8, 24, 48 and 72 hours respectively, and the obtained solutions were detected by HPLC analysis in comparison to the solutions before storage. […] No significant changes of pH in solution before storage and after storage were observed.

## desacylated human ghrelin (GSSFLSPEHQRVQQRKESKKPPAKLQPR; Ghrelin-28 desacyl; UniProt Q9UBU3 24-51, looked up) [Desacyl compound, degradation product obtained from the hydrolytic cleavage of octanoyl group of human ghrelin]
[1]; aqueous solution of pH 3.9 and 4.7, 25±2°C, up to 3 days
  Production of the degradation product in human ghrelin solution: inhibited
[1]; human ghrelin 0.1 mg/mL in purified water adjusted to pH 1.8 with hydrochloric acid, 1 day after
  Peak area ratio to total peak area: 1.46%
[1]; human ghrelin 0.1 mg/mL in purified water adjusted to pH 1.8 with hydrochloric acid, before storage
  Peak area ratio to total peak area: 0.12%
[1]; human ghrelin 0.1 mg/mL in purified water adjusted to pH 3.9 with hydrochloric acid, 1 day after
  Peak area ratio to total peak area: 0.09%
[1]; human ghrelin 0.1 mg/mL in purified water adjusted to pH 3.9 with hydrochloric acid, 3 days after
  Peak area ratio to total peak area: 0.14%
[1]; human ghrelin 0.1 mg/mL in purified water adjusted to pH 3.9 with hydrochloric acid, before storage
  Peak area ratio to total peak area: 0.07%
[1]; human ghrelin 0.1 mg/mL in purified water adjusted to pH 7.8 with sodium hydroxide, 1 day after
  Peak area ratio to total peak area: 3.65%
[1]; human ghrelin 0.1 mg/mL in purified water adjusted to pH 7.8 with sodium hydroxide, 3 days after
  Peak area ratio to total peak area: 9.84%
[1]; human ghrelin 0.1 mg/mL in purified water adjusted to pH 7.8 with sodium hydroxide, before storage
  Peak area ratio to total peak area: 0.33%
[1]; human ghrelin 0.1 mg/mL in purified water, pH 4.7 (not adjusted), 1 day after
  Peak area ratio to total peak area: 0.15%
[1]; human ghrelin 0.1 mg/mL in purified water, pH 4.7 (not adjusted), 3 days after
  Peak area ratio to total peak area: 0.28%
[1]; human ghrelin 0.1 mg/mL in purified water, pH 4.7 (not adjusted), before storage
  Peak area ratio to total peak area: 0.06%
[2]
  Production of the degradation product in human ghrelin solution: inhibited
[3]; Mcllvain buffer, pH range of 3.0 to 5.0, 25±2°C, up to 72 hours
  Production of the degradation product in human ghrelin solution: inhibited
[3]; human ghrelin 0.5 mg/mL in 0.1M HCl aqueous solution, pH 1, 25±2°C, 8 hr. after
  Peak area ratio to total peak area: 4.88%
[3]; human ghrelin 0.5 mg/mL in 0.1M HCl aqueous solution, pH 1, 25±2°C, 8 hr. after, listed as desacyl compound
  Peak area ratio to total peak area: more than 3%
[3]; human ghrelin 0.5 mg/mL in 0.1M HCl aqueous solution, pH 1, 25±2°C, 24 hr. after
  Peak area ratio to total peak area: 13.31%
[3]; human ghrelin 0.5 mg/mL in 0.1M HCl aqueous solution, pH 1, 25±2°C, 48 hr. after
  Peak area ratio to total peak area: 24.63%
[3]; human ghrelin 0.5 mg/mL in 0.1M HCl aqueous solution, pH 1, 25±2°C, 72 hr. after
  Peak area ratio to total peak area: 34.17%
[3]; human ghrelin 0.5 mg/mL in 0.1M HCl aqueous solution, pH 1, 25±2°C, before storage
  Peak area ratio to total peak area: 0.27%
[3]; human ghrelin 0.5 mg/mL in Mcllvain buffer, pH 2, 25±2°C, 8 hr. after
  Peak area ratio to total peak area: 0.34%
[3]; human ghrelin 0.5 mg/mL in Mcllvain buffer, pH 2, 25±2°C, 24 hr. after
  Peak area ratio to total peak area: 0.89%
[3]; human ghrelin 0.5 mg/mL in Mcllvain buffer, pH 2, 25±2°C, 48 hr. after
  Peak area ratio to total peak area: 1.76%
[3]; human ghrelin 0.5 mg/mL in Mcllvain buffer, pH 2, 25±2°C, 48 hr. after, listed as desacyl compound
  Peak area ratio to total peak area: more than 1%
[3]; human ghrelin 0.5 mg/mL in Mcllvain buffer, pH 2, 25±2°C, 72 hr. after
  Peak area ratio to total peak area: 2.59%
[3]; human ghrelin 0.5 mg/mL in Mcllvain buffer, pH 2, 25±2°C, before storage
  Peak area ratio to total peak area: 0.10%
[3]; human ghrelin 0.5 mg/mL in Mcllvain buffer, pH 3, 25±2°C, 8 hr. after
  Peak area ratio to total peak area: 0.20%
[3]; human ghrelin 0.5 mg/mL in Mcllvain buffer, pH 3, 25±2°C, 24 hr. after
  Peak area ratio to total peak area: 0.38%
[3]; human ghrelin 0.5 mg/mL in Mcllvain buffer, pH 3, 25±2°C, 48 hr. after
  Peak area ratio to total peak area: 0.67%
[3]; human ghrelin 0.5 mg/mL in Mcllvain buffer, pH 3, 25±2°C, 72 hr. after
  Peak area ratio to total peak area: 0.98%
[3]; human ghrelin 0.5 mg/mL in Mcllvain buffer, pH 3, 25±2°C, before storage
  Peak area ratio to total peak area: 0.10%
[3]; human ghrelin 0.5 mg/mL in Mcllvain buffer, pH 4, 25±2°C, 8 hr. after
  Peak area ratio to total peak area: 0.12%
[3]; human ghrelin 0.5 mg/mL in Mcllvain buffer, pH 4, 25±2°C, 24 hr. after
  Peak area ratio to total peak area: 0.21%
[3]; human ghrelin 0.5 mg/mL in Mcllvain buffer, pH 4, 25±2°C, 48 hr. after
  Peak area ratio to total peak area: 0.37%
[3]; human ghrelin 0.5 mg/mL in Mcllvain buffer, pH 4, 25±2°C, 72 hr. after
  Peak area ratio to total peak area: 0.51%
[3]; human ghrelin 0.5 mg/mL in Mcllvain buffer, pH 4, 25±2°C, before storage
  Peak area ratio to total peak area: 0.09%
[3]; human ghrelin 0.5 mg/mL in Mcllvain buffer, pH 5, 25±2°C, 8 hr. after
  Peak area ratio to total peak area: 0.14%
[3]; human ghrelin 0.5 mg/mL in Mcllvain buffer, pH 5, 25±2°C, 24 hr. after
  Peak area ratio to total peak area: 0.24%
[3]; human ghrelin 0.5 mg/mL in Mcllvain buffer, pH 5, 25±2°C, 48 hr. after
  Peak area ratio to total peak area: 0.45%
[3]; human ghrelin 0.5 mg/mL in Mcllvain buffer, pH 5, 25±2°C, 72 hr. after
  Peak area ratio to total peak area: 0.61%
[3]; human ghrelin 0.5 mg/mL in Mcllvain buffer, pH 5, 25±2°C, before storage
  Peak area ratio to total peak area: 0.10%
[3]; human ghrelin 0.5 mg/mL in Mcllvain buffer, pH 6, 25±2°C, 8 hr. after
  Peak area ratio to total peak area: 0.28%
[3]; human ghrelin 0.5 mg/mL in Mcllvain buffer, pH 6, 25±2°C, 24 hr. after
  Peak area ratio to total peak area: 0.70%
[3]; human ghrelin 0.5 mg/mL in Mcllvain buffer, pH 6, 25±2°C, 48 hr. after
  Peak area ratio to total peak area: 1.33%
[3]; human ghrelin 0.5 mg/mL in Mcllvain buffer, pH 6, 25±2°C, 48 hr. after, listed as desacyl compound
  Peak area ratio to total peak area: more than 1%
[3]; human ghrelin 0.5 mg/mL in Mcllvain buffer, pH 6, 25±2°C, 72 hr. after
  Peak area ratio to total peak area: 1.97%
[3]; human ghrelin 0.5 mg/mL in Mcllvain buffer, pH 6, 25±2°C, before storage
  Peak area ratio to total peak area: 0.10%
[3]; human ghrelin 0.5 mg/mL in Mcllvain buffer, pH 7, 25±2°C, 8 hr. after
  Peak area ratio to total peak area: 0.92%
[3]; human ghrelin 0.5 mg/mL in Mcllvain buffer, pH 7, 25±2°C, 24 hr. after
  Peak area ratio to total peak area: 2.70%
[3]; human ghrelin 0.5 mg/mL in Mcllvain buffer, pH 7, 25±2°C, 24 hr. after, listed as desacyl compound
  Peak area ratio to total peak area: more than 1%
[3]; human ghrelin 0.5 mg/mL in Mcllvain buffer, pH 7, 25±2°C, 48 hr. after
  Peak area ratio to total peak area: 5.22%
[3]; human ghrelin 0.5 mg/mL in Mcllvain buffer, pH 7, 25±2°C, 72 hr. after
  Peak area ratio to total peak area: 7.67%
[3]; human ghrelin 0.5 mg/mL in Mcllvain buffer, pH 7, 25±2°C, before storage
  Peak area ratio to total peak area: 0.16%
[3]; human ghrelin 0.5 mg/mL in Mcllvain buffer, pH 8, 25±2°C, 8 hr. after
  Peak area ratio to total peak area: 3.92%
[3]; human ghrelin 0.5 mg/mL in Mcllvain buffer, pH 8, 25±2°C, 8 hr. after, listed as desacyl compound
  Peak area ratio to total peak area: more than 3%
[3]; human ghrelin 0.5 mg/mL in Mcllvain buffer, pH 8, 25±2°C, 24 hr. after
  Peak area ratio to total peak area: 10.57%
[3]; human ghrelin 0.5 mg/mL in Mcllvain buffer, pH 8, 25±2°C, 48 hr. after
  Peak area ratio to total peak area: 19.54%
[3]; human ghrelin 0.5 mg/mL in Mcllvain buffer, pH 8, 25±2°C, 72 hr. after
  Peak area ratio to total peak area: 27.26%
[3]; human ghrelin 0.5 mg/mL in Mcllvain buffer, pH 8, 25±2°C, before storage
  Peak area ratio to total peak area: 0.47%
